Patent US8399204B2, “Method for screening of substance which alter GPR120-mediated cell-stimulating activities” (Eisai R&D Management Co., Ltd., priority 2005, dated 2013)

T1: human GPR120 (Homo sapiens, UniProt Q5NUL3)
T1 construct: open reading frame which starts with ATG of the nucleotide number 1-3 and ends with TAA of the nucleotide number 1084-1086; expressed in transfected cells; host or cells: SE302 cells (HEK293 clone carrying a CRE-PLAP reporter), transduced with retrovirus from pBabeCL(GPR120)IH and selected with hygromycin
T1 sequence (Q5NUL3 1-361): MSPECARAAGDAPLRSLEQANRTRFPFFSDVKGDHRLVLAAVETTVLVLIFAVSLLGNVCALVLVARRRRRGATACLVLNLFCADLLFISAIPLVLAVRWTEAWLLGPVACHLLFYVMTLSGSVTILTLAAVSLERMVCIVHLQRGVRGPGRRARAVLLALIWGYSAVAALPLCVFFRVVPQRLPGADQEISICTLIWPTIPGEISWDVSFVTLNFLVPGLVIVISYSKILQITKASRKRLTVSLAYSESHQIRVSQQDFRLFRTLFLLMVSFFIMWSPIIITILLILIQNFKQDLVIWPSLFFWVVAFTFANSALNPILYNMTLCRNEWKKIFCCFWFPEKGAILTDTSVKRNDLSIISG

T2: mouse GPR120 (Mus musculus, UniProt Q7TMA4)
T2 construct: expressed in transfected cells; host or cells: SE302 cells (HEK293 clone carrying a CRE-PLAP reporter), transduced with retrovirus from pBabeCL(mGPR120)IH and selected with hygromycin
T2 sequence (Q7TMA4 1-361): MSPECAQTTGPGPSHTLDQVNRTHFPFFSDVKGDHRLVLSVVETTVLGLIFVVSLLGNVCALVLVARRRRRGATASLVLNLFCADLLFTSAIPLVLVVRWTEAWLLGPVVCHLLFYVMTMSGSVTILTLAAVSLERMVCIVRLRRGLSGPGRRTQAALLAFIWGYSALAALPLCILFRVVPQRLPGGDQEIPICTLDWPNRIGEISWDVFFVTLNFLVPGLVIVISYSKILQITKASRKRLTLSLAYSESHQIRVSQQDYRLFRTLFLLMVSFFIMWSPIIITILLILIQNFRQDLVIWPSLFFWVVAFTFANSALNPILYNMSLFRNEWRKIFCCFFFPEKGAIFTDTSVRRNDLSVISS

B1: recombinant hGX-sPLA2: C-terminal FLAG-tagged human GX-sPLA2 (SEQ ID NO 43) produced in silkworm pupae, purified (protein, listed as Homo sapiens)
chain: MGPLPVCLPIMLLLLLPSLLLLLLLPGPGSGEASRILRVHRRGILELAGTVGCVGPRTPIAYMKYGCFCGLGGHGQPRDAIDWCCHGHDCCYTRAEEAGCSPKTERYSWQCVNQSVLCGPAENKCQELLCKCDQEIANCLAQTEYNLKYLFYPQFLCEPDSPKCDDYKDDDDK
modifications: C-terminal FLAG tag
B2: GX-sPLA2: rat Group X secretory phospholipase A2 (SEQ ID NO 23) purified from rat intestinal tract and testis extracts (protein, listed as Rattus norvegicus)
chain: GLLELAGTLDCVGPRSPMAYMNYGCYCGLGGHGEPRDAIDWCCYYHDCCYSQAQDAGCSPKLYRYPWKCMDHRILCGPAENKCQELLCRCDETLAYCLADTEYHLKYLFFPSVLCEKDSPKCN
B3: mGX-sPLA2-His: purified mouse C-terminal His-tagged GX-sPLA2 from baculovirus-infected Sf9 cells (protein, UniProt Q9QXX3 29-151, looked up)
Group 10 secretory …: GLLELAGTLDCVGPRSPMAYMNYGCYCGLGGHGEPRDAIDWCCYHHDCCYSRAQDAGCSPKLDRYPWKCMDHHILCGPAENKCQELLCRCDEELAYCLAGTEYHLKYLFFPSILCEKDSPKCN
modifications: C-terminal His6 tag
notes: purified mouse C-terminal His-tagged GX-sPLA2 from baculovirus-infected Sf9 cells
B4: hGX-sPLA2-His: purified human C-terminal His-tagged GX-sPLA2 from baculovirus-infected Sf9 cells (protein, UniProt O15496 43-165, looked up)
Group 10 secretory …: GILELAGTVGCVGPRTPIAYMKYGCFCGLGGHGQPRDAIDWCCHGHDCCYTRAEEAGCSPKTERYSWQCVNQSVLCGPAENKCQELLCKCDQEIANCLAQTEYNLKYLFYPQFLCEPDSPKCD
modifications: C-terminal His6 tag
notes: purified human C-terminal His-tagged GX-sPLA2 from baculovirus-infected Sf9 cells
B5: recombinant mGX-sPLA2: C-terminal FLAG-tagged mouse GX-sPLA2 (SEQ ID NO 45) from baculovirus-infected Sf-9 cells, purified (protein, listed as Mus musculus)
chain: MLLLLLLLLLGPGPGFSEATRRSHVYKRGLLELAGTLDCVGPRSPMAYMNYGCYCGLGGHGEPRDAIDWCCYHHDCCYSRAQDAGCSPKLDRYPWKCMDHHILCGPAENKCQELLCRCDEELAYCLAGTEYHLKYLFFPSILCEKDSPKCNDYKDDDDK
modifications: C-terminal FLAG tag

Tests used:
human GPR120 = molecular target: T1, human GPR120; experiment: PLAP reporter transcription activity in GPR120-SE302 cells (CRE-PLAP reporter); format: cell-based; details: HEK293-derived SE302 cells expressing human GPR120; forskolin 1.0 μM plus sample, 24 hours; chemiluminescence of supernatant; compared to control cells (GFP-SE302)
Procedure: (§1) Using a retrovirus vector plasmid pBabeCLcre4vPdNN capable of inducing a reporter PLAP gene by a cyclic AMP responsive element sequence, a retrovirus vector was prepared according to the method described in Example 4. The retrovirus vector prepared was introduced into HEK293 cells and cells were cloned by a limiting dilution method.
(§2) The SE302 cells constructed in Example 5 were seeded onto a collagen coated 6 well plate (Asahi Technoglass, Co.) at 1.2×10^5 cells per well. Cells were cultured with 2 mL/well of DMEM medium (Sigma, Co.) (containing 10% FBS, penicillin 100 units/mL and streptomycin 100 μg/mL). On the following day, solutions of the virus vector containing GPR120 or mGPR120 obtained in Example 4, and polybrene (also called hexadimethrine bromide, Sigma, Co.) at a final concentration of 8 μg/mL were added to SE302 cells. Cells were cultured with the medium containing 500 μg/mL of hygromycin (Invitrogen, Co.) and cells grown under this condition were used for experiments as SE302 cells introduced with GPR120 gene, and SE302 cells introduced with mGPR120 gene (referred to as “GPR120-SE302 cells” and “mGPR120-SE302 cells”, respectively hereinafter).
The aforementioned GPR120-SE302 cells or mGPR120-SE302 cells constructed in Example 6 were suspended in the culture medium for measurement of transcription activity (DMEM containing FBS which was heat-treated at 65° C. for 30 min at a final concentration of 10%) and seeded onto a 96 well plate (Becton Dickinson, Co.) at 1×10^4 cells/well. In addition, as control cells, SE302 cells expressing green fluorescent protein (GFP, Invitrogen, Co.) (referred to as “GFP-SE302 cells” hereinafter) were used. Specifically, GFP-302 cells were prepared by obtaining a virus for expressing GFP using the method shown in Example 3 and 4, and transfecting SE302 cells with the virus using the method shown in Example 6. Cells were cultured for 24 hours after seeding, and forskolin prepared at a final concentration of 1.0 μM and a sample were added. Cells were cultured for another 24 hours and 5 μL of the cell supernatant was recovered and transferred to a polypropylene 384-well white plate (Nalge Nunc International, Co.). Then, 20 μL of the assay buffer (280 mmol/L Na2CO3—NaHCO3, 8 mmol/L MgSO4, pH 10) and 25 μL of Lumiphos530 (Lumigen, Co.) were added. Following a 2-hour reaction at room temperature, chemiluminescence in each well was measured using a Fusion plate reader (Perkin Elmer, Co.) and was defined as the transcription activity. Based on these measured values, stimulation/inhibition of transcription activity was calculated using the equation (I) shown below and described as [% of control]. Activities of the group with a sample added were calculated using the value of control placed on each plate. […]

mouse GPR120 = molecular target: T2, mouse GPR120; experiment: PLAP reporter transcription activity in mGPR120-SE302 cells (CRE-PLAP reporter); format: cell-based; details: HEK293-derived SE302 cells expressing mouse GPR120; forskolin 1.0 μM plus sample, 24 hours; chemiluminescence of supernatant; compared to control cells (GFP-SE302)
Procedure: as §1, §2
The aforementioned GPR120-SE302 cells or mGPR120-SE302 cells constructed in Example 6 were suspended in the culture medium for measurement of transcription activity (DMEM containing FBS which was heat-treated at 65° C. for 30 min at a final concentration of 10%) and seeded onto a 96 well plate (Becton Dickinson, Co.) at 1×10^4 cells/well. In addition, as control cells, SE302 cells expressing green fluorescent protein (GFP, Invitrogen, Co.) (referred to as “GFP-SE302 cells” hereinafter) were used. Specifically, GFP-302 cells were prepared by obtaining a virus for expressing GFP using the method shown in Example 3 and 4, and transfecting SE302 cells with the virus using the method shown in Example 6. Cells were cultured for 24 hours after seeding, and forskolin prepared at a final concentration of 1.0 μM and a sample were added. Cells were cultured for another 24 hours and 5 μL of the cell supernatant was recovered and transferred to a polypropylene 384-well white plate (Nalge Nunc International, Co.). Then, 20 μL of the assay buffer (280 mmol/L Na2CO3—NaHCO3, 8 mmol/L MgSO4, pH 10) and 25 μL of Lumiphos530 (Lumigen, Co.) were added. Following a 2-hour reaction at room temperature, chemiluminescence in each well was measured using a Fusion plate reader (Perkin Elmer, Co.) and was defined as the transcription activity. Based on these measured values, stimulation/inhibition of transcription activity was calculated using the equation (I) shown below and described as [% of control]. Activities of the group with a sample added were calculated using the value of control placed on each plate. [% of control]=(X−C)/(F−C)×100 (I) Herein, in the above equation: • X: PLAP transcription activity in the group added with a sample, • F: Mean value of transcription activities in 2 wells of a positive control (no sample added, stimulated with forskolin), • C: Mean value of transcription activities in 2 wells of a negative control (no sample added, not stimulated with forskolin).

Molecule	PLAP activity in GPR120-SE302 cells (human GPR120)	PLAP activity in mGPR120-SE302 cells (mouse GPR120)
porcine pancreatic sPLA2: commercially-available (Sigma) porcine pancreatic sPLA2, reported to be mainly Group IB sPLA2 (Swiss Prot P00592)	concentration dependent elevation of PLAP activity	concentration dependent elevation of PLAP activity
B1	concentration dependent elevation of PLAP activity	concentration dependent elevation of PLAP activity
B2	elevate PLAP activity specifically in GPR120-SE302 cells	–
B3	–	concentration dependent elevation of PLAP activity
B4	–	concentration dependent elevation of PLAP activity
B5	concentration dependent elevation of PLAP activity	concentration dependent elevation of PLAP activity
